# B1: CD13: recombinant Aminopeptidase N/CD13 used as stimulus; recombinant mouse CD13 planned for knee injection (protein, UniProt P15144 2-967, looked up)
# Aminopeptidase N: AKGFYISKSLGILGILLGVAAVCTIIALSVVYSQEKNKNANSSPVASTTPSASATTNPASATTLDQSKAWNRYRLPNTLKPDSYRVTLRPYLTPNDRGLYVFKGSSTVRFTCKEATDVIIIHSKKLNYTLSQGHRVVLRGVGGSQPPDIDKTELVEPTEYLVVHLKGSLVKDSQYEMDSEFEGELADDLAGFYRSEYMEGNVRKVVATTQMQAADARKSFPCFDEPAMKAEFNITLIHPKDLTALSNMLPKGPSTPLPEDPNWNVTEFHTTPKMSTYLLAFIVSEFDYVEKQASNGVLIRIWARPSAIAAGHGDYALNVTGPILNFFAGHYDTPYPLPKSDQIGLPDFNAGAMENWGLVTYRENSLLFDPLSSSSSNKERVVTVIAHELAHQWFGNLVTIEWWNDLWLNEGFASYVEYLGADYAEPTWNLKDLMVLNDVYRVMAVDALASSHPLSTPASEINTPAQISELFDAISYSKGASVLRMLSSFLSEDVFKQGLASYLHTFAYQNTIYLNLWDHLQEAVNNRSIQLPTTVRDIMNRWTLQMGFPVITVDTSTGTLSQEHFLLDPDSNVTRPSEFNYVWIVPITSIRDGRQQQDYWLIDVRAQNDLFSTSGNEWVLLNLNVTGYYRVNYDEENWRKIQTQLQRDHSAIPVINRAQIINDAFNLASAHKVPVTLALNNTLFLIEERQYMPWEAALSSLSYFKLMFDRSEVYGPMKNYLKKQVTPLFIHFRNNTNNWREIPENLMDQYSEVNAISTACSNGVPECEEMVSGLFKQWMENPNNNPIHPNLRSTVYCNAIAQGGEEEWDFAWEQFRNATLVNEADKLRAALACSKELWILNRYLSYTLNPDLIRKQDATSTIISITNNVIGQGLVWDFVQSNWKKLFNDYGGGSFSFSNLIQAVTRRFSTEYELQQLEQFKKDNEETGFGSGTRALEQALEKTKANIKWVKENKEVVLQWFTENSK
# Experiments:
# C57Bl/6 mice [1] = assay: Mouse model of inflammatory arthritis, intra-articular injection into knee joints; format: in vivo; conditions: 500 ng in 20 μl of PBS, 24 and 48 hours
# Description: To use the mouse model of inflammatory arthritis, female C57Bl/6 mice (8-10 weeks old, Harlan Laboratories) are anesthetized with ketamine (80-120 mg/kg body weight) and xylazine (5-10 mg/kg body weight) intraperitoneally, and the knee circumference is determined by caliper measurements before intra-articular injection, as described (67). The anesthetized mice receive 20 μl/knee joint of PBS and recombinant mouse CD13 (500 ng in 20 μl of PBS). Circumference measurements are obtained in a blinded manner. Mice are euthanized after 24 and 48 hours of the intraarticular injection. Mouse knees are measured before euthanasia. Hematoxylin and eosin (H&E) staining of the mouse knee cryosections is performed to determine the inflammatory response of CD13 (67). Immunofluorescence staining is also performed on cryosections using rat anti-mouse F4/80 antibody (GenTex) to detect MNs/macrophages. The number of F4/80-positive MNs/macrophages is calculated as the average number of cells in 3 fields (400X).
# normal human MN = assay: Normal human MN chemotaxis in modified Boyden chambers; format: cell-based; conditions: PBS negative control
# Description: FIG. 14. To evaluate the contribution of CD13 to RA inflammation by recruiting MNs, normal human MN chemotaxis assays were performed in modified Boyden chambers. […] PBS served as negative control. n=number of experiments. The results are expressed as mean+SEM and *p<0.05 was considered significant. n=number of replicates.
# [2] = tested on: Human dermal microvascular endothelial cell (HMVEC); assay: HMVEC chemotaxis in modified Boyden chamber; format: cell-based; conditions: p<0.05 vs PBS; dose-dependent
# Description: FIG. 10. Human dermal microvascular endothelial cell (HMVEC) chemotaxis was performed in a modified Boyden chamber using CD13 at various concentrations. […] CD13 induced HMVEC migration from 500-2000 ng/ml (p<0.05). Data represent the mean of 3 individual experiments±SEM. Three high-power fields (hpf) (×400) were counted in each replicate well and results were expressed as cells per hpf. PBS served as negative control.
# C57Bl/6 mice [3] = assay: Matrigel plug angiogenesis assay in vivo (hemoglobin); set-up: species or system mouse; conditions: subcutaneous Matrigel 500 μl, plugs harvested after 7 days
# Description: FIG. 13. To test the effect of CD13 in angiogenesis in vivo, Matrigel plug assays were performed using C57Bl/6 mice. Each mouse was given a subcutaneous injection of sterile GFR Matrigel (500 μl/injection) containing either CD13 or PBS, a negative control. Matrigel plugs were harvested after 7 days. Hemoglobin (Hb) was determined. […] Results are represented as the mean+SEM and *p<0.05 was considered significant. n=number of mice per group.
# This assay is performed as described previously (56-58). RA SFs sham- or CD13-depleted (50 μl in 500 μl of Matrigel) are injected subcutaneously in C57Bl/6 mice. After 7 days, the mice are euthanized and the Matrigel plugs are removed, weighed, and processed for hemoglobin (Hb) measurement or immunofluorescence. Hemoglobin (Hb) concentration is determined either by the Drabkin method using a Drabkin's reagent kit (Sigma) or with the 3,3,5,5-tetramethylbenzidine substrate system (Sigma) (56, 61, 62). Hb values are normalized to plug weight.
# RA FLS = assay: FLS growth assay (Essen IncuCyte, percent confluence); format: cell-based, human; conditions: proliferation and migration
# Description: FIG. 5. […] FLS were seeded on 96-well plates overnight. An Essen Incucyte system was used for both growth (A) and migration (B) assays. Growth was calculated as the difference in percent confluence from time 0. Migration was measured in a scratch-wound assay using relative wound density. All data are expressed as a ratio to untreated FLS of the same cell line. mean±SEM n≥4 (*p≤0.05).
# RA FLS were seeded on Essen Image Lock 96-well plates (Essen Bioscience, Ann Arbor, Mich.) overnight at either 3,000 cells/well for growth or 30,000 cells/well for migration. For growth, the 20% FBS CMRL media was removed and cells were washed 1× with PBS. 100 μl of medium alone (control) or medium containing anti-CD3 (25 or 50 ng/ml, OKT3, used as a non-reactive isotype control antibody in this experiment), anti-CD13 1D7 or WM15 (Biolegend, San Diego, Calif.) (25 or 50 ng/ml), or CD13 chemical inhibitors actinonin (Sigma-Aldrich, St. Louis, Mo.) or bestatin (Sigma-Aldrich, St. Louis, Mo.) (10 μM and 50 μM, respectively) was added to the wells. Images and confluence data were collected using an Essen IncuCyte (Essen Bioscience, Ann Arbor, Mich.). For the scratch-wound migration assay, wounds were made via the Essen scratch-wound tool in the seeded 96-well plate. Plates were then washed 2× with PBS and medium was added similar to the growth plates. Data were collected and the confluence or relative wound density calculated by the Essen IncuCyte.
# [4] = tested on: Human dermal microvascular endothelial cell (HMVEC); assay: HMVEC tube formation on growth factor-reduced Matrigel; format: cell-based; conditions: GFR Matrigel
# Description: FIG. 11. Human dermal microvascular endothelial cell (HMVEC) tube formation was assessed on growth factor-reduced Matrigel (GFR, BD Biosciences) with CD13. […] Arrows indicate the number of tubes formed in each group. n=number of replicates in each group. The number of tubes formed was quantitated by an observer blinded to the experimental groups.
# HMVEC Matrigel tube formation assay. After finding that CD13 is chemotactic for HMVECs, the role of CD13 in RA is examined by performing HMVEC capillary morphogenesis assay on Matrigel tube with sham- or CD13-depleted RA SFs. Growth factor-reduced Matrigel (GFR, BD Biosciences) is used to perform this assay (56-58). CD13- or sham-depleted RA SFs are used as test groups (58). The chambers are incubated for 16 to 18 hours at 37° C. in a 5% CO2 humidified atmosphere. Cells are fixed and stained with Diff-Quik. The number of tubes formed is quantitated by an observer blinded to the experimental groups. bFGF (30 nM) and phosphate buffered saline (PBS) serve as positive and negative controls, respectively.
molecule,measurement,setting,value
B1,increase in mouse knee circumference compared to PBS,C57Bl/6 mice [1],2-3 fold
same,MN migration,normal human MN,concentration-dependent increase in MN migration
same,concentrations at which HMVEC migration was induced,[2],500 to 2000 ng/mL
same,hemoglobin (Hb) in Matrigel plugs compared to PBS,C57Bl/6 mice [3],more than a four-fold increase in Hb
same,effect of additional rhCD13 on RA FLS proliferation and migration,RA FLS,did not consistently affect the RA FLS
same,EC tubes formed compared to PBS,[4],almost two-fold more numerous
